Here are results for two molecules from US20020019040A1 (LEADD B V, published 2002).

In assay [1] the target is T1, fusion gene product of GAL4-DNA-binding domain and Apoptin (bait plasmid pGBT-VP3) (chicken anemia virus, UniProt P04386 1-147; Q99152 1-121).
T1 construct: Yeast two-hybrid bait, expressed in yeast strain Y190; also called pGBT9-VP3; not shown: residues encoded by the EcoRI-NdeI linker
Put plainly: yeast two-hybrid.

Assay [2] concerns the target T1, fusion gene product of GAL4-DNA-binding …. The experiment in a line: yeast two-hybrid control (HIS3 and LacZ reporters).

B1: GAL4-activation domain fusion of the AAP-3 cDNA clone (pACT) (other)
chain: HEGPMVGGGGVGGGLLENANPLIYQRSGERPVTAGEEDEQVPDSIDAREIFDLIRSINDPEHPLTLEELNVVEQVRVQVSDPESTVAVAFTPTIPHCSMATLIGLSIKVKLLRSLPQRFKMDVHITPGTHASEHAVNKQLADKERVAAALENTHLLEVVNQCLSARS
notes: Yeast two-hybrid prey; also called Apoptin-associating clone AAP-3
B1: the binding result in assay [1] is given as “binds”.

B2: GAL4-activation domain of the empty pACT vector (other)
chain: ANFNQSGNIADSSLSFTFTNSSNGPNLITTQTNSQALSQPIASSNVHDNFMNNEITASKIDDGNNSKPLSPGWTDQTAYNAFGITTGMFNTTTMDDVYNYLFDDEDTPPNPKKE
notes: Negative control of the yeast two-hybrid system
Take B2: the binding result in assay [2] is listed as “no binding”.
